Among the data in the supplement of paper PMC10126150 are switch fluorescence ratio values, retold here.

± gives the standard deviation of the averaged measurements.

This data set has as its system ATP. Nature of the data set: switch fluorescence ratio, 500 uM ATP over buffer (Cy3 cluster intensity, sum of 5 cycles each) (fold (ratio)); higher = stronger signal-on switching upon ATP binding; sequences stand for … in TCGTCGGCAGCGTCAGATGTGTATAAGAGACAGTTTTTTTTTTTTTTTTTTTTTTTTT…TC. The note with it: aptamer strand: ATP DNA aptamer (quencher-CACCTGGGGGAGTATTGCGGAGGAAGG + anchor), 100 nM annealed; ATP concentration: 500 uM. In outline:
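Clusters carrying Cy3-labelled switching strands on a modified Illumina MiSeq flow-cell were annealed to 100 nM quencher-labelled ATP aptamer and imaged in selection buffer. They were imaged again after 15 min with 500 uM ATP at 22 °C, over five buffer/ATP cycles with NaOH stripping and re-annealing in between. For each cluster, the fluorescence ratio is the summed Cy3 intensity of the target cycles divided by that of the buffer cycles, averaged per switch-domain sequence. Clusters outside 100-1000 RFU were left out.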
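Also: ATP exposure 15 min at 22 °C before imaging.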

AAAAAAAAGA: the switch fluorescence ratio turned out to be 0.996 ± 0.048. For the sequence AAAAAAAAGG, the switch fluorescence ratio was 1 ± 0.05. In the case of AAAAAAAGCG it was 0.979 ± 0.058; in that of AAAAAACGTG, 1.06 ± 0.091.

Take AAAAAAGAAT: the switch fluorescence ratio was determined as 0.9938 ± 0.0096. For the sequence AAAAAAGGAC, the switch fluorescence ratio was 1.03 ± 0.044. Take AAAAAATCGG: the switch fluorescence ratio came to 1 ± 0.019. For the sequence AAAAAATGGG, the switch fluorescence ratio stood at 1.01 ± 0.012.

Turning to AAAAACACCG, the switch fluorescence ratio was determined as 1.09 ± 0.078. In the case of AAAAACGGCT it was 0.99 ± 0.017; in that of AAAAACGTCA, 1.003 ± 0.0045; in that of AAAAACTGAA, 1.01 ± 0.02. In the case of AAAAAGAAAG, the switch fluorescence ratio turned out to be 1.02 ± 0.022. As to AAAAAGATTT, the switch fluorescence ratio is 1.05 ± 0.081.

For AAAAAGCTTT, the switch fluorescence ratio was found to be 1.026 ± 0.0047. For the sequence AAAAAGGAGG, the switch fluorescence ratio was found to be 1 ± 0.015. In the case of AAAAAGGCTA it was 1.03 ± 0.017; in that of AAAAAGTCGC, 0.961 ± 0.022; in that of AAAAAGTGGT, 0.9827 ± 0.0041. AAAAATACGG: the switch fluorescence ratio came to 0.965 ± 0.057. For AAAAATATGA, the switch fluorescence ratio amounted to 1.01 ± 0.053. Regarding AAAAATGAGA, the switch fluorescence ratio was determined as 0.998 ± 0.043. With AAAAATGTTG, the switch fluorescence ratio is 1 ± 0.053. In the case of AAAAATTCCG it was 1.045 ± 0.0036; in that of AAAACACAGA, 1.15 ± 0.14; in that of AAAACACGTA, 1.13 ± 0.035. Consider AAAACGCGGT, for which the switch fluorescence ratio is 1.2 ± 0.042.

On to AAAACGGAGA, for which the switch fluorescence ratio was found to be 1.02 ± 0.014.

On to AAAAGAGGTG, for which the switch fluorescence ratio worked out at 1.08 ± 0.034.

On to AAAAGATAAA, for which the switch fluorescence ratio amounted to 0.977 ± 0.023. With AAAAGCAGGG, the switch fluorescence ratio is 1 ± 0.014.

As for AAAAGCGGAT, the switch fluorescence ratio was determined as 1.025 ± 0.0063. Regarding AAAAGCGTTG, the switch fluorescence ratio is 0.999 ± 0.013.

For AAAAGGAGTT, the switch fluorescence ratio was determined as 0.998 ± 0.016. In the case of AAAAGGCCGT it was 1.02 ± 0.0058; in that of AAAAGGCGGT, 1.01 ± 0.012; in that of AAAAGGGATT, 0.98 ± 0.012. In the case of AAAAGGGGCA, the switch fluorescence ratio worked out at 1.04 ± 0.051. In the case of AAAAGGGTA it was 0.957 ± 0.048; in that of AAAAGGTCAG, 1.01 ± 0.021; in that of AAAAGTAACC, 0.993 ± 0.026. On to AAAAGTAGGA, for which the switch fluorescence ratio worked out at 0.984 ± 0.065. Take AAAAGTATAA: the switch fluorescence ratio was 1.03 ± 0.036. For the sequence AAAAGTTGGT, the switch fluorescence ratio came out at 1.02 ± 0.083.

AAAAGTTTGT: the switch fluorescence ratio was found to be 1 ± 0.032. As to AAAATAAGGC, the switch fluorescence ratio was found to be 0.981 ± 0.03. As for AAAATAATTC, the switch fluorescence ratio turned out to be 1 ± 0.059. Regarding AAAATATAGA, the switch fluorescence ratio amounted to 0.9798 ± 0.0025. AAAATCAGCC: the switch fluorescence ratio was 1.07 ± 0.053. In the case of AAAATCAGGC it was 0.944 ± 0.085; in that of AAAATCGGGA, 1 ± 0.035.

For AAAATCTGCG, the switch fluorescence ratio was determined as 1.03 ± 0.041.

On to AAAATCTTGT, for which the switch fluorescence ratio amounted to 1.04 ± 0.0066. As to AAAATGCGGT, the switch fluorescence ratio is 0.996 ± 0.015. In the case of AAAATGCGTT it was 1.02 ± 0.029; in that of AAAATGGCCA, 1.02 ± 0.083; in that of AAAATGGGCC, 0.963 ± 0.033.

Consider AAAATGGGGC, for which the switch fluorescence ratio amounted to 1 ± 0.037. In the case of AAAATGTCGG it was 0.998 ± 0.012; in that of AAAATGTTTT, 1.02 ± 0.031.

Regarding AAAATTATC, the switch fluorescence ratio worked out at 0.997 ± 0.019. AAAATTCGTA: the switch fluorescence ratio turned out to be 1.028 ± 0.0022. As for AAAATTTAAC, the switch fluorescence ratio is 1.01 ± 0.023.

Consider AAAATTTCAA, for which the switch fluorescence ratio was 1.011 ± 0.0042. For the sequence AAAATTTGTT, the switch fluorescence ratio worked out at 1 ± 0.015. Turning to AAAATTTTGG, the switch fluorescence ratio was 1 ± 0.043. For AAACACAGGG, the switch fluorescence ratio is 1.07 ± 0.063. With AAACAGGGGG, the switch fluorescence ratio came out at 0.982 ± 0.028. In the case of AAACAGTAGA, the switch fluorescence ratio amounted to 1.07 ± 0.042. AAACATTTTG: the switch fluorescence ratio amounted to 1.02 ± 0.036. As for AAACCGACAT, the switch fluorescence ratio came to 1.27 ± 0.03. In the case of AAACCGGAAC, the switch fluorescence ratio was 2.26 ± 0.1.

As for AAACCGGGAC, the switch fluorescence ratio is 1.55 ± 0.15.

Regarding AAACCTATGG, the switch fluorescence ratio is 0.986 ± 0.055. As to AAACGAAAAA, the switch fluorescence ratio is 1.04 ± 0.044. As for AAACGAATGG, the switch fluorescence ratio is 0.981 ± 0.022. AAACGCTGGT: the switch fluorescence ratio worked out at 1.01 ± 0.0087.

Take AAACGGAGGG: the switch fluorescence ratio is 0.996 ± 0.038. For AAACGGCATC, the switch fluorescence ratio was determined as 1.073 ± 0.0074. In the case of AAACGGGCGG, the switch fluorescence ratio amounted to 0.996 ± 0.045.

Take AAACGGGGAG: the switch fluorescence ratio worked out at 0.991 ± 0.021. Turning to AAACGGGGAT, the switch fluorescence ratio turned out to be 0.992 ± 0.011. Turning to AAACGTAATA, the switch fluorescence ratio came out at 1.31 ± 0.014. For the sequence AAACGTCCT, the switch fluorescence ratio was 1.07 ± 0.012. In the case of AAACTAAAAA, the switch fluorescence ratio was 1 ± 0.033.

As for AAACTAAGTT, the switch fluorescence ratio is 1.041 ± 0.008. With AAACTGGGGC, the switch fluorescence ratio is 1.12 ± 0.022.

Consider AAACTGGGGT, for which the switch fluorescence ratio is 0.999 ± 0.0016. Consider AAACTTAAGA, for which the switch fluorescence ratio came out at 0.996 ± 0.049. In the case of AAACTTAGC, the switch fluorescence ratio is 1.03 ± 0.065.

For the sequence AAAGAAACTC, the switch fluorescence ratio stood at 1.47 ± 0.7. With AAAGAAAGGG, the switch fluorescence ratio worked out at 1 ± 0.029. Consider AAAGAAATTC, for which the switch fluorescence ratio was determined as 1.02 ± 0.068.

AAAGAATGGT: the switch fluorescence ratio is 0.991 ± 0.054. For the sequence AAAGAATTCG, the switch fluorescence ratio came to 0.974 ± 0.037. Consider AAAGACATCT, for which the switch fluorescence ratio is 1.02 ± 0.095.

AAAGACGACA: the switch fluorescence ratio was found to be 1.27 ± 0.29. Regarding AAAGAGGAGG, the switch fluorescence ratio is 0.984 ± 0.036. With AAAGAGGCTT, the switch fluorescence ratio came out at 0.983 ± 0.039.

Turning to AAAGAGGTTC, the switch fluorescence ratio turned out to be 1.04 ± 0.068. For the sequence AAAGATATCT, the switch fluorescence ratio amounted to 0.979 ± 0.022. Take AAAGATTTTT: the switch fluorescence ratio came out at 0.9851 ± 0.0092. AAAGCCGATG: the switch fluorescence ratio was 1 ± 0.012. Take AAAGCCGGTA: the switch fluorescence ratio amounted to 1.01 ± 0.084. In the case of AAAGCGGGTC, the switch fluorescence ratio is 1.04 ± 0.015.

Regarding AAAGCGGTTA, the switch fluorescence ratio came to 1.007 ± 0.006.

For AAAGCGTGCG, the switch fluorescence ratio turned out to be 0.964 ± 0.022. AAAGCTGAAT: the switch fluorescence ratio was found to be 0.992 ± 0.0057. For AAAGCTGTAG, the switch fluorescence ratio was found to be 1.02 ± 0.038. Turning to AAAGCTGTTT, the switch fluorescence ratio came out at 1.02 ± 0.014. As to AAAGGAACTC, the switch fluorescence ratio turned out to be 0.999 ± 0.092.

Consider AAAGGACACA, for which the switch fluorescence ratio is 1.061 ± 0.01.

On to AAAGGATGTT, for which the switch fluorescence ratio was found to be 0.995 ± 0.041.

For the sequence AAAGGCCCCC, the switch fluorescence ratio was found to be 1.0047 ± 0.00068. In the case of AAAGGCGAGG, the switch fluorescence ratio turned out to be 0.957 ± 0.015. On to AAAGGCTGAA, for which the switch fluorescence ratio came out at 1.03 ± 0.048. In the case of AAAGGCTGGG, the switch fluorescence ratio was found to be 1.04 ± 0.087.

Take AAAGGGAAAC: the switch fluorescence ratio came out at 1.2 ± 0.28. In the case of AAAGGGAAGG it was 1.01 ± 0.018; in that of AAAGGGAAGT, 0.983 ± 0.048.
